Laboratory results taken from patent publication US20160362487A1 (Regeneron, published 2016).

T1: cynomolgus monkey IL-33 expressed with a C-terminal hexahistidine tag (cynomolgus monkey)
T1 construct: also called MfIL-33-6His; Mf-IL-33-6His
T1 chain: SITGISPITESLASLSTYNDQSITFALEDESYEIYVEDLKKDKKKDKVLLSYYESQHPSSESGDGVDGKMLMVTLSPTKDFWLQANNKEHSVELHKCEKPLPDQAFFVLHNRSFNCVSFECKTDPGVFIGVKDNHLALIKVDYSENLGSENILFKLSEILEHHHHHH

T2: human IL-33 (R&D Systems, #3625-IL-010/CF) (human, UniProt O95760 112-270)
T2 construct: Commercial recombinant protein; also called hIL-33; interleukin-33
T2 sequence (looked up): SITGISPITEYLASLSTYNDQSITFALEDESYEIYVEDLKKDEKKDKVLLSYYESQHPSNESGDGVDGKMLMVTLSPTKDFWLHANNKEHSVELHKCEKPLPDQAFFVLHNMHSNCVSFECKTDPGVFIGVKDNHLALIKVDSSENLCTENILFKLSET


Tests used:
[1] = biological target: T1, cynomolgus monkey IL-33 expressed with …; test: BLI; captured MfIL-33-6His, mAb-1 step with Isotype control
Procedure: Binding competition between a panel of different anti-IL-33 monoclonal antibodies was determined using a real time, label-free bio-layer interferometry assay on an Octet® HTX biosensor (ForteBio, A Division of Pall Life Sciences). The experiment was performed at 25° C. using a buffer of 0.01M HEPES pH7.4, 0.15M NaCl, 3 mM EDTA, 0.05% v/v Surfactant Tween-20, and 0.1 mg/ml BSA (HBS-ET kinetics buffer) with the plate shaking at a speed of 1000 rpm. […] The antigen-captured biosensors were then saturated with a first anti-IL-33 monoclonal antibody (subsequently referred to as mAb-1) by immersion into wells containing 50 μg/mL solution of mAb-1 for 5 minutes. The biosensors were then dipped into wells containing a 50 μg/mL solution of a second anti-IL-33 monoclonal antibody (subsequently referred to as mAb-2) for 4 minutes. The biosensors were washed in HBS-ET kinetics buffer in between every step of the experiment. The real-time binding response was monitored during the experiment, and the maximum binding response for each binding step was recorded. The response of mAb-2 binding to MfIL-33-6His pre-complexed with mAb-1 was measured, and competitive/non-competitive behavior of different anti-IL-33 monoclonal antibodies with respect to each other was determined.

[2] = biological target: T1, cynomolgus monkey IL-33 expressed with …; test: competition ELISA, 150 pM MfIL-33-6His on coated hST2-hFc
Procedure: The ability of anti-IL-33 antibodies to block either human IL-33 (hIL-33) or cynomologus monkey IL-33 binding to the human ST2 receptor was measured using a competition sandwich ELISA. […] The antibody/IL-33 mixtures were incubated for 1 hour at room temperature before they were transferred to the hST2-hFc-coated microtiter plates. After incubating for 1 hour at room temperature, the wells were then washed, and plate-bound biotin-hIL-33 was detected with streptavidin conjugated with horse-radish peroxidase (HRP) (Thermo Scientific, Cat # N200), and plate-bound MfIL-33-6His was detected with a HRP conjugated anti-His monoclonal antibody (Qiagen, #34460). All samples were developed with a TMB solution (BD biosciences, #51-2607KC) to produce a colorimetric reaction and then quenched by acidification with 1M sulfuric acid before measuring absorbance at 450 nm on a Victor X5 plate reader. Data analysis was performed using a sigmoidal dose-response model within Prism™ software. […] Percent blockade was calculated as the ratio of the reduction in signal observed in the presence of antibody relative to the difference between the signal with IL-33 alone and background (signal from HRP-conjugated secondary antibody or streptavidin alone). The absorbance measured for the constant concentration of biotin-hIL-33 or MfIL-33-6His alone is defined as 0% blocking and the absorbance measured for no added IL-33 is defined as 100% blocking.

[3] = biological target: T2, human IL-33 (R&D Systems, …); test: SPR 37C, pH6.0 chase, mAb captured
Procedure: (§1) Equilibrium dissociation constants (KD values) for IL-33 binding to purified anti-IL-33 monoclonal antibodies were determined using a real-time surface plasmon resonance biosensor using a Biacore 4000 instrument. The Biacore sensor surface was first derivatized by amine coupling with either a polyclonal rabbit anti-mouse antibody (GE, # BR-1008-38) or with a monoclonal mouse anti-human Fc antibody (GE, # BR-1008-39) to capture anti-IL-33 monoclonal antibodies expressed with mouse or with human IgG4 constant regions, respectively. All Biacore binding studies were performed in 0.01M ADA pH 7.4, 0.15M NaCl, 3 mM EDTA, and 0.05% v/v Surfactant Tween-20 (ABS-ET running buffer). […] Association of either hIL-33 or MfIL-33-6His to the captured monoclonal antibody was monitored for 4 minutes and their dissociation in ABS-ET running buffer was monitored for 10 minutes. The effect of reduced pH on the binding of each anti-IL-33 antibody to either hIL-33 or MfIL-33-6His was studied using an in-line pH chase assay format in 0.01M ADA pH 6.0, 0.15M NaCl, 3 mM EDTA, and 0.05% v/v Surfactant Tween-20 (ABS-ET pH6 buffer). To achieve this, association of either hIL-33 or MfIL-33-6His to the captured monoclonal antibody was monitored for 4 minutes in ABS-ET running buffer. Following a 30 second dissociation of either hIL-33 or MfIL-33-6His in ABS-ET running buffer, ABS-ET pH6 buffer was injected for 3 minutes, and the analyte dissociation under the low-pH conditions was measured. All the binding kinetic experiments were performed at both 25° C. and 37° C. Kinetic association (kₐ) and dissociation (kd) constants were determined by fitting the real-time sensorgrams to a 1:1 binding model using Scrubber 2.0c curve fitting software. Binding dissociation equilibrium constants (KD) and dissociative half-lives (t½) were calculated from the kinetic rate constants as: […]

[4] = biological target: T1, cynomolgus monkey IL-33 expressed with …; test: SPR 37C, pH6.0 chase, mAb captured
Procedure: as §1

[5] = biological target: T2, human IL-33 (R&D Systems, …); test: cell-based or functional assay

Binder | mAb-2 Binding to the Pre-complex of mAb-1 & MfIL-33-6xHis [1] [nm] | % Maximum blocking [2] [%] | IC50 [2] [nM] | koff [3] [s⁻¹] | t½ [3] [min] | t½ Ratio (pH 7.4/pH 6.0) [3] | koff [4] [s⁻¹] | t½ [4] [min] | t½ Ratio (pH 7.4/pH 6.0) [4] | IC50, blocking of IFN-γ release from human PBMC induced by 260 pM hIL-33, donor #603486 [5] [M] | IC50, blocking of IFN-γ release from human PBMC induced by 260 pM hIL-33, donor #603487 [5] [M]
H4H9660P (antibody, human IgG4, V domains shown, Human IgG4 Fc (H4H)) VH: EVQLVESGGGLVQPGGSLRLSCAASGITLSSYGMSWVRQAPGKGLEWVASIFGSGGGPYYADSVKGRFTMSRDNSKNTLYLQMNSLRAEDTAVYYCAKDRYSGSYYGGFDYWGRGTLVTVSS VL: DIQMTQSPSSVSASVGDRVTITCRASQGITSWLAWYQQKPGKAPTLLIYAASSLQTGVPSRFSGSGSGTDFTLTISSLQPEHFATYYCQQANSFPPTFGGGTKVEIK | 0.26 | 68 | 4.2 | 0.00323 | 4 | 6.8 | 0.00463 | 2.5 | 1 | 6.67e-10 | 2.91e-09
H4H9667P (antibody, human IgG4, V domains shown, Human IgG4 Fc (H4H)) VH: EVQLVESGGGLVQPGGSLRLSCAASGFTFSTYSMHWVRQAPGKGLEYVSTINNNGDTTYYADSVKGRFTISRDNSKNTLYLQLGSLRPEDMAVYYCARQTYTSSWYGGFDSWGQGTLVTVSS VL: DIQMTQSPSSVSASVGDRVTITCRASQGITSWLAWYQQKPGKAPKLLIYAASNLQSGVPSRFSGSGSGTDFTLTITSLQPEDFATYYCQQANSLPFTFGPGTKVDIK | 0.26 | 72 | 4.1 | 0.00244 | 5 | 4 | 0.00268 | 4 | 0.8 | 8.07e-09 | 1.88e-08
H4H9662P (antibody, V domains shown, Human IgG4 Fc (H4H)) VH: EVQLVESGGGLVQPGGSLRLSCAASGFTFSSYALTWVRQAPGKGLEWVSFISGSGGRPFYADSVKGRFTISRDNSKNMLYLQMNSLRAEDTAIYYCAKSLYTTSWYGGFDSWGQGTLVTVSS VL: DIQMTQSPSSVSASVGDRVTITCRASQGVVSWLAWYQQKPGKAPKLLIYAASSLQSGVPSRFSGSGSGTDFTLTISSLQPEDFATYYCQQSNSFPFTLGPGTKVDIK | 0.22 | 87 | 0.86 | 0.00383 | 3 | 6.2 | 0.00168 | 7 | 1.1 | 9.64e-10 | 3.02e-09
H4H9664P (antibody, human IgG4, V domains shown, Human IgG4 Fc (H4H)) VH: QVQLVESGGGVVQPGRSLRLSCAASGFTFSSYGLHWVRQSPGKGLEWVALISYDGSNKYYADSVKGRFTISRDNSKNTLYLQMNSLRPEDTAGYFCAKSLYTTSWYGGFDYWGQGTLVTVSS VL: DIQMTQSPSSVSASVGDRVTITCRASQGIRSWLAWYQQKPGKAPNLLIYAASSLQSGVPSRFSGSGSGTDFTLTISSLQPEDFATYYCQQANSFPPTFGPGTKVDIK | 0.27 | 67 | 3.8 | 0.00279 | 4 | 3.9 | 0.00193 | 6 | 0.3 | 3.98e-09 | 6.08e-09

The next lines start with the values.

mAb-2 Binding to the Pre-complex of mAb-1 & MfIL-33-6xHis [1] [nm] | % Maximum blocking [2] [%] | IC50 [2] [nM] | koff [3] [s⁻¹] | t½ [3] [min] | t½ Ratio (pH 7.4/pH 6.0) [3] | koff [4] [s⁻¹] | t½ [4] [min] | t½ Ratio (pH 7.4/pH 6.0) [4] | IC50, blocking of IFN-γ release from human PBMC induced by 260 pM hIL-33, donor #603486 [5] [M] | IC50, blocking of IFN-γ release from human PBMC induced by 260 pM hIL-33, donor #603487 [5] [M] | Binder
0.3 | 81 | 0.42 | 0.00965 | 1 | 6.7 | 0.004 | 2.9 | 1.9 | 1.04e-08 | 2.34e-08 | H4H9665P (antibody, human IgG4, V domains shown, Human IgG4 Fc (H4H)) VH: EVQLVESGGGLVQPGGSLRLSCAASGFTFSNYAMTWVRQAPGKGLEWVSTISGSGDNTYYADSVQGRFTISRGHSKNTLYLQMNSLRAEDTAVYYCAKPTYSRSWYGAFDFWGQGTMVTVSS VL: DIQMTQSPSSVSASVGDRVTITCRASQGISSWLAWYQQKPGKAPQLLIYAASRLQSGVPSRFWGSGSGTDFTLTISSLQPEDFATYYCQQANNFPFTFGPGTKVDIK
0.23 | 81 | 1.2 | 0.00462 | 3 | 3.7 | 0.00354 | 3.3 | 1 | 1.24e-08 | 2.2e-08 | H4H9663P (antibody, human IgG4, V domains shown, Human IgG4 Fc (H4H)) VH: QVQLVQSGAEVKKPGASVKVSCKASGYTFTGHYMYWMRQAPGQGLEWMGWINPNSGGTNYAQKFQDRVTMTRDTSISTAYMELSRLRSDDTAVYYCARGRYGSSWYGGFEYWGQGTLVTVSS VL: DIQMTQSPSSVSASVGDRVTITCRASQGITSWLAWYQQKPGKAPNLLIYAAASLQSGVPSRFSGSGSGTDFTLTISSLQPEDFTTYYCQQAYSLPLTFGGGTKVEIK
0.28 | 73 | 3.5 | 0.00265 | 4 | 4.6 | 0.00226 | 5 | 0.5 | 4.42e-09 | 1.22e-08 | H4H9640P (antibody, human IgG4, V domains shown, Human IgG4 Fc (H4H)) VH: QVQLQESGPGLVKPSETLSLTCTVSGGSISSYYWSWIRQPPGKGLELIGYIYYSGSTNYNPSLKSRVTISVDTSKNHFSLKLSSVTAADTAVYYCARSQYTSSWYGSFDIWGQGTMVTVSS VL: DIQMTQSPSSVSASVGDRVTITCRASQGISTWLAWFQQKPGKAPKLLIYAASTLQGGVPSRFSGSGSGPEFTLTISSLQPEDFATYYCQQANSFPWTFGQGTKVEIK
